Biological target: lysozyme (UniProt P00698)
Test: ELISA; phage ELISA: lysozyme immobilised in a 96-well NUNC Maxisorp plate; 1ZVH displayed on phage
Conditions: one partner purified

Sequence of lysozyme (P00698 19-147): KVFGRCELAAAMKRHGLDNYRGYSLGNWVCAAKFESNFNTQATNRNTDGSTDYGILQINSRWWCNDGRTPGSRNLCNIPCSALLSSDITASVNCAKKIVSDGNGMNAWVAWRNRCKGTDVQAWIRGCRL

B1: camel nanobody 1ZVH, displayed on phage (VHH)
VHH: DVQLVESGGGSVQAGGSLRLSCAASGYIASINYLGWFRQAPGKEREGVAAVSPAGGTPYYADSVKGRFTVSLDNAENTVYLQMNSLKPEDTALYYCAAARQGWYIPLNSYGYNYWGQGTQVTVSS
notes: also called template of the ASyNAL library
  binding result: binds

— paper PMC9479348 (Journal of Nanobiotechnology, 2022)
